This note sets out measurements from article PMC3913652.

The experiment concerns the target rat GLP-1 receptor (rat) (UniProt P32301).

Sequence of rat GLP-1 receptor (rat) (P32301 22-463): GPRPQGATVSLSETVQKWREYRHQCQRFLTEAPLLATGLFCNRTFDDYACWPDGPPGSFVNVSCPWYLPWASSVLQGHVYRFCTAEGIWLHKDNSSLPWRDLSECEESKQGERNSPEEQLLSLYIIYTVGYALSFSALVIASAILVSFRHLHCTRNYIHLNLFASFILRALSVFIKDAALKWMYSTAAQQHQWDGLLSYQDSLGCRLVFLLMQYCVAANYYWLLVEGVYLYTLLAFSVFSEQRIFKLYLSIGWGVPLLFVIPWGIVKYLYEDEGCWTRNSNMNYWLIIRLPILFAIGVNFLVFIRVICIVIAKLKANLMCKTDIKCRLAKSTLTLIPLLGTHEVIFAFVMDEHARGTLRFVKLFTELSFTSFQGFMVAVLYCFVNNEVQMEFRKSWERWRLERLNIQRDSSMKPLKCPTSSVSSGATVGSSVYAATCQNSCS

[Leu^14]exenatide (peptide): the EC50, cAMP in 6–23 clone 6 cells (GLP-1 Receptor Functional Assay, 0.1% BSA) is 6 pM.
